Experimental findings from patent US20060205646 are described below.

This data set has as its target T1, Heat gamma.
T1 chain: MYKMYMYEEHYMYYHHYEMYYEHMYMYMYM

B1: activated recombinant MMP1 (protein)
chain: FVLTEGNPRWEQTHLTYRIENYTPDLPRADVDHAIEKAFQLWSNVTPLTFTKVSEGQADIMISFVRGDHRDNSPFDGPGGNLAHAFQPGPGIGGDAHFDEDERWTNNFREYNLHRVAAHELGHSLGLSHSTDIGALMYPSYTFSGDVQLAQDDIDGIQAIYGRSQNPVQPIGPQTPKACDSKLTFDAITTIRGEVMFFKDRFYMRTNPFYPEVELNFISVFWPQLPNGLEAAYEFADRDEVRFFKGNKYWAVQGQNVLHGYPKDIYSSFGFPRTVKHIDAALSEENTGKTYFFVANKYWRYDEYKRSMDPGYPKMIAHDFPGIGHKVDAVFMKDGFFYFFHGTRQYKFDPKTKRILTLQKANSWFNCRKN
For B1, the “cleavage of Fluorogenic Peptide substrate I by 0.2 µg activated recombinant MMP1, 60 µg Heat Gamma” value is “Heat gamma efficiently inhibits the MMP1 activity as indicated by a decrease in relative fluorescence”.

B2: activated recombinant MMP2 (protein)
chain: YNFFPRKPKWDKNQITYRIIGYTPDLDPETVDDAFARAFQVWSDVTPLRFSRIHDGEADIMINFGRWEHGDGYPFDGKDGLLAHAFAPGTGVGGDSHFDDDELWTLGEGQVVRVKYGNADGEYCKFPFLFNGKEYNSCTDTGRSDGFLWCSTTYNFEKDGKYGFCPHEALFTMGGNAEGQPCKFPFRFQGTSYDSCTTEGRTDGYRWCGTTEDYDRDKKYGFCPETAMSTVGGNSEGAPCVFPFTFLGNKYESCTSAGRSDGKMWCATTANYDDDRKWGFCPDQGYSLFLVAAHEFGHAMGLEHSQDPGALMAPIYTYTKNFRLSQDDIKGIQELYGASPDIDLGTGPTPTLGPVTPEICKQDIVFDGIAQIRGEIFFFKDRFIWRTVTPRDKPMGPLLVATFWPELPEKIDAVYEAPQEEKAVFFAGNEYWIYSASTLERGYPKPLTSLGLPPDVQRVDAAFNWSKNKKTYIFAGDKFWRYNEVKKKMDPGFPKLIADAWNAIPDNLDAVVDLQGGGHSYFFKGAYYLKLENQSLKSVKFGSIKSDWLGC
For B2, the “cleavage of Fluorogenic Peptide substrate I by 0.2 µg activated recombinant MMP2, 60 µg Heat Gamma” value was “Heat gamma efficiently inhibits the MMP2 activity as indicated by a decrease in relative fluorescence”.
